Test results as given in PMC7229763.

Biological target: T1, BAF-WT (Homo sapiens, UniProt O75531 1-89)
T1 sequence: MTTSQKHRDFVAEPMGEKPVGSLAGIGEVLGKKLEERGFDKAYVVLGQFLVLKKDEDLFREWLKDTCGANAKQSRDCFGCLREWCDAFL
Experiment: ITC

B1: ITC dsDNA (30 bp, same sequence as EMSA probe) (dsDNA)
DNA 1: GAATCCTAACTGGGCGGAGTTATGCTGGTG
DNA 2: CACCAGCATAACTCCGCCCAGTTAGGATTC
Ka: 1.89 ± 0.19 uM (as printed for KA; dimension inconsistent, possibly 10^6 M-1)
